In article doi:10.1101/2025.01.09.632146:

Target: AtSAR1c-GFP (Arabidopsis thaliana) (UniProt O04834)
Assay: co-IP

Chain of UniProt O04834 (O04834 whole entry): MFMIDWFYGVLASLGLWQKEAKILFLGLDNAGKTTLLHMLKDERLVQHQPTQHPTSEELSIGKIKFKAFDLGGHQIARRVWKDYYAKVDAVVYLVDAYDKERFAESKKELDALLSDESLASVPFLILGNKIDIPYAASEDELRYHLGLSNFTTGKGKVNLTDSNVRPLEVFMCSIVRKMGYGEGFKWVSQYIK

“endogenous AtPHF1 (from UniProt Q8GYE0 1-398) (natural protein)” showed a fold co-immunoprecipitated against AtSAR1b[H74L]-CFP of 4 fold, a fold co-immunoprecipitated against GFP of 3 fold and a fold co-immunoprecipitated against GFP, normalised, Pi deficiency of 30 fold.
